One test addresses T1, human LGR6 transgene (human, UniProt Q9HBX8 25-967).
T1 construct: whole, on cells; Overexpressed in HEK293T cells with N-terminal HA tag, V2 receptor tail and eGFP; also tested as lysate; also called hLGR6; LGR6-eGFP
T1 sequence (looked up): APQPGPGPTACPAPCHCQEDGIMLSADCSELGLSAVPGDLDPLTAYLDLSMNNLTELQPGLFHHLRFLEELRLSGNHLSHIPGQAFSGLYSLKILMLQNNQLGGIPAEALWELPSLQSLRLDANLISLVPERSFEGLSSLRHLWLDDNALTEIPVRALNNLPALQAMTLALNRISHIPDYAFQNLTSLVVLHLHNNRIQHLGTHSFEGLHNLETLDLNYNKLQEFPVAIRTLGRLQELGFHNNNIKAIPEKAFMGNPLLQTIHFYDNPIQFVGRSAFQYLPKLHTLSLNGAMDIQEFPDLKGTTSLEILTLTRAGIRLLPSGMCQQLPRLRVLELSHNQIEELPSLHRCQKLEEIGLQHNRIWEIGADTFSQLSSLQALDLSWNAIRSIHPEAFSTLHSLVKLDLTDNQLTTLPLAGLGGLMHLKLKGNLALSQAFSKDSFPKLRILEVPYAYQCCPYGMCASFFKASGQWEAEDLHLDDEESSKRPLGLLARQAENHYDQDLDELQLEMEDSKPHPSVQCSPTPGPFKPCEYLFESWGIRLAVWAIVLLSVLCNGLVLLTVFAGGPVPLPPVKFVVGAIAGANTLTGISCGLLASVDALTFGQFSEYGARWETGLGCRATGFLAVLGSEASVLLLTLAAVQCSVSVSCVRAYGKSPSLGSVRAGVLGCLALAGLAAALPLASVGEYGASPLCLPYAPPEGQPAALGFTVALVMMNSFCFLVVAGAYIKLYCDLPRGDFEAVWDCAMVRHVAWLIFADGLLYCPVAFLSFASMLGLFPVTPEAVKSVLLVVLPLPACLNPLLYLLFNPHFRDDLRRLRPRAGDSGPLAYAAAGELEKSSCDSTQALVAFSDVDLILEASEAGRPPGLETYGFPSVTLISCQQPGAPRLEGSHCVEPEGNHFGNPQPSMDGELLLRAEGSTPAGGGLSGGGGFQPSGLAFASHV
Put plainly: indirect immunofluorescence on HEK293T cells expressing human and murine LGR family transgenes (FIG. 14B).

Another test addresses T2, murine LGR6 transgene (mouse, UniProt Q3UVD5 23-967).
T2 construct: whole, on cells; also called mLGR6
T2 sequence (looked up): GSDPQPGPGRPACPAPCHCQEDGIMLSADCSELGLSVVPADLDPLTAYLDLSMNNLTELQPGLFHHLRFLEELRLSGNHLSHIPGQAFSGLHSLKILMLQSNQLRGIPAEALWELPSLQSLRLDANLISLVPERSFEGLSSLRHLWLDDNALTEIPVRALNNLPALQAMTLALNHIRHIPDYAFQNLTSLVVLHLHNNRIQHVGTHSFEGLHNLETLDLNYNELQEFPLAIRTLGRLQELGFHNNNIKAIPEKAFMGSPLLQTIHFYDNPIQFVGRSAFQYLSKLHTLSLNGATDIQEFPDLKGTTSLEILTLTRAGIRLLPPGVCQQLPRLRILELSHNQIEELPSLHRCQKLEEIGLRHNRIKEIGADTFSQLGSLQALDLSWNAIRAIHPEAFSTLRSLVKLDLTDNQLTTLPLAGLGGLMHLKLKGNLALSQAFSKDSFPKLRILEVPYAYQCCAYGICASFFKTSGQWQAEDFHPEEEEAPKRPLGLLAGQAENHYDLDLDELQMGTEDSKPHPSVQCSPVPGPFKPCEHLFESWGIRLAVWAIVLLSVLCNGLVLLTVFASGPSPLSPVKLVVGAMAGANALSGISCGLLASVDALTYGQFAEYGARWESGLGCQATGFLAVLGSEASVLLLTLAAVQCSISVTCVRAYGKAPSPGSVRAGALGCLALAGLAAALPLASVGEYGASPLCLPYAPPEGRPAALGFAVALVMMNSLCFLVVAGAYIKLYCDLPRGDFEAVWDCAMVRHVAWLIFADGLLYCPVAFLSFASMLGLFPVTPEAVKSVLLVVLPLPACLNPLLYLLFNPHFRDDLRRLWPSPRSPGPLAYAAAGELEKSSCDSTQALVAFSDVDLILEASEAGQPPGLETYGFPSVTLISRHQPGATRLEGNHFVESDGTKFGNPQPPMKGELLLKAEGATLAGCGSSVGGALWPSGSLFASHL
The description is as above.

The target in test [1] is T3, endogenous human LGR5 of cancer cell lines (human, UniProt O75473 22-907).
T3 construct: Untagged LGR5 as expressed by human LoVo, NALM6, REH cells and CRC organoids; also called LGR5 on LoVo cells; LGR5 on NALM6 cells
T3 sequence: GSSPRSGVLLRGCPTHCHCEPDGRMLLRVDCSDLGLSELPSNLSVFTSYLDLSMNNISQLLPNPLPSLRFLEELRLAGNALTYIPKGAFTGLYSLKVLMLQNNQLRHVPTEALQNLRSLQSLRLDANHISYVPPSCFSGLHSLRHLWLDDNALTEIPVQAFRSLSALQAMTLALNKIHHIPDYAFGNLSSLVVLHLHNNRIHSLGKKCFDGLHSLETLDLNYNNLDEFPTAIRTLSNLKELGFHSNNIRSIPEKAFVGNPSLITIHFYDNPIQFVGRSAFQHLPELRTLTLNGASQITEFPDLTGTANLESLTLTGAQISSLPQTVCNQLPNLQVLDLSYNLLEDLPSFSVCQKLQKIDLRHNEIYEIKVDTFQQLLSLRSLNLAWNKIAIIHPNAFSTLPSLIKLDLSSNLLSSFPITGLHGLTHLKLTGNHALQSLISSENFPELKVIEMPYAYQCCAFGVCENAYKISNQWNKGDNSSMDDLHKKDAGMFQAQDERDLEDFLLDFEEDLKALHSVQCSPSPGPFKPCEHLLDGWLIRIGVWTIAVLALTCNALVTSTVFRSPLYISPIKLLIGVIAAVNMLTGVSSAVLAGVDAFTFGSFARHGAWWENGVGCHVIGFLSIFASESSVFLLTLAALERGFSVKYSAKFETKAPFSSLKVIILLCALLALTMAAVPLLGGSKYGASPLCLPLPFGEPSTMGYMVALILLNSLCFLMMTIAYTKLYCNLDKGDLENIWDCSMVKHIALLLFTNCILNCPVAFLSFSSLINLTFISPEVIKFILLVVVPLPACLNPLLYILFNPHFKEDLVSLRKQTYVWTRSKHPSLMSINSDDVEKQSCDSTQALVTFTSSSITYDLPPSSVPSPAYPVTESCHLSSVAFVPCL
Put plainly: flow cytometry of LoVo and NALM6 cells after 60 minutes with fluorescent antibodies, α-HER2 against α-LGR5. For orientation: Flow cytometry measures light scatter and fluorescence of single cells or particles in a stream.

The record followed here is patent US20250257126A1 (CAMBRIDGE ENTERPRISE, published 2025).

B1: α-LGR5 variant 4 (antibody, human IgG1, kappa, V domains shown)
VH: QVQLVQSGAEVKKPGASVKVSCKASGYTFTNYWMQWVRQAPGQGLEWIGEIDPSDSYTNYNQKFQGRVTLTVDTSTSTAYMELSSLRSEDTAVYYCARSLSGYVDYWGQGTTVTVSS
VL: EIVMTQSPATLSLSPGERATLSCRASQDISNRLNWYQQKPGQAVRLLISYRSRRHTGIPARFSGSGSGTDYTLTISSLEPEDFAVYYCQQGNSLPPTFGGGTKLEIKR
notes: Humanized antibody; also called α-LGR5v4; clone 2.4
Regarding B1, the results for the binding result (with human LGR6 transgene; in the test with murine LGR6 transgene; in test [1]) were “no binding”, “no binding” and “binds”, respectively.
